{
  "source": "paper PMC10700182",
  "about": "“A Bacterial Quorum Sensing Regulated Protease Inhibits Host Immune Responses by Cleaving Death Domains of Innate Immune Adaptors” (Advanced Science, 2023)",
  "proteins": {"B1": {"name": "Myd88 DD^20-117-SNAP (domain or fragment)", "chain": "LPLAALNMRVRRRLSLFLNVRTQVAADWTALAEEMDFEYLEIRQLETQADPTGRLLDAWQGRPGASVGRLLELLTKLGRDDVLLELGPSIEEDCQKYI", "modifications": "benzylguanine dye (BG-647 or BG-488, AlexaFluor) on the SNAP tag", "notes": "also called MyD88 Death domain; MyD88 DD SNAP; source: E. coli BL21(DE3), purified (Ni-NTA agarose)"}},
  "biological_target": "the molecule itself",
  "assay": "native gel or EMSA",
  "data": [
    {"protein": "B1", "values": [
      {"measurement": "binding result", "result": "binds"}
    ]}
  ]
}
